Measured values published in patent US20220411495A1, “POSITIVE ALLOSTERIC MODULATORS OF THE CALCIUM-SENSING RECEPTOR” (VIB VZW, priority 2019, published 2022).
Changes are numbered by the printed parent chain. Values belong to the molecule of their own block, whether it stands above or below them.

Molecular target: T1, rat CaSR (rCaSR) (Rattus norvegicus, UniProt P48442)
T1 construct: mGlu5 signal peptide (N); expressed in transfected cells; host or cells: HEK293A, transient transfection
T1 sequence (P48442 20-1079): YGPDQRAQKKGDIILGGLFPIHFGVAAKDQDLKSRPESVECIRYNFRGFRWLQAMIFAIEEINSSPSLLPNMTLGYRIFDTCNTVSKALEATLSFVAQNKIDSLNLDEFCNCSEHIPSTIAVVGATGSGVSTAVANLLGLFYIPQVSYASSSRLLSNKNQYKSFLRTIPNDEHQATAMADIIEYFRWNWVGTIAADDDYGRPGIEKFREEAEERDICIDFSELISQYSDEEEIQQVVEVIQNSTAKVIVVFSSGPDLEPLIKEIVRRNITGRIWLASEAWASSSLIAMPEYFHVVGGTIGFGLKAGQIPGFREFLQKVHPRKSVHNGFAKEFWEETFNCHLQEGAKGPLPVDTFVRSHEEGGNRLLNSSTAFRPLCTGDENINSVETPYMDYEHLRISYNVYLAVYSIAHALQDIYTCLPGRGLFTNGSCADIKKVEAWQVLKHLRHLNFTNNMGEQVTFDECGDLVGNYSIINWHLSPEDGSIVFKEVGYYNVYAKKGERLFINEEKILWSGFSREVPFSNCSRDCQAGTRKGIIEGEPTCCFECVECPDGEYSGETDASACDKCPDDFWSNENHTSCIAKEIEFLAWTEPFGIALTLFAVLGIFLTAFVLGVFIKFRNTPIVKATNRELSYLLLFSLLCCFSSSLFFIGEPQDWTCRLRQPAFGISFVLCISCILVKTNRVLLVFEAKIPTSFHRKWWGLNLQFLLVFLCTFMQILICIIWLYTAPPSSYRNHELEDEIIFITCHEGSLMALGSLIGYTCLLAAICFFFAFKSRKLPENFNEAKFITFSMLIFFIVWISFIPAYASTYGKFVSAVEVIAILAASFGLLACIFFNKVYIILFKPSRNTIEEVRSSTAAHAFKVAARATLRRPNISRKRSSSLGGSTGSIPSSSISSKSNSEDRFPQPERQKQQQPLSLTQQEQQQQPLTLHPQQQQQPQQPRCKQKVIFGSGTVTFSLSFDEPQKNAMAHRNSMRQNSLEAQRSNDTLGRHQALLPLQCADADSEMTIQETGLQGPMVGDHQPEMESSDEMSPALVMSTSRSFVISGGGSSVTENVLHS
Assay: IP1 accumulation assay, HEK293A cells transiently transfected with HA-rCaSR WT
Type: cell-based
Settings: IP1 accumulation at EC20 Ca2+
Description: The rat and human CaSR orthologs have an overall sequence identity of 93.6% and an ECD sequence identity of 95.7% (SEQ ID NO:1 aligned with SEQ ID NO:2). Thus, differences in CaSR nanobody activity are unlikely to be observed. […] Besides CaSR Nb36, similar results were obtained among the nanobodies that originate from the same family (FIGS. 7E and 7F). For Nb36, the increase in maximum response relative to Nb4 and Nb11 previously observed with human CaSR was absent (FIGS. 7C and 7F). The binding site of these nanobodies still remains to be found. The difference in CaSR Nb36 maximum response and the high interspecies sequence identity could bring us one step closer to finding the binding site for CaSR Nb4, Nb11 and Nb36.
All cell lines utilized in this study were grown at 37° C. and 5% CO2. The HEK293A (RRID: CVCL_6910) and stable Flp-In HEK293 cells were cultured in Dulbecco's Modified Eagle Medium (DMEM, #31966021) supplemented with 10% dialyzed Fetal Bovine Serum (dFBS) and 1% 10,000 units/mL penicillin and 10,000 μg/mL streptomycin mixture (pen/strep). The stable Flp-In CHO cells were cultured in F-12K medium (#21127022) supplemented with 10% dFBS and 1% pen/strep. Additionally, the stable Flp-In HEK293 and Flp-In CHO cell lines were cultured in the presence of respectively 200 and 500 μg/mL hygromycin B. For pharmacological characterization, Flp-In HEK293 HA-hCaSR WT cells were seeded in poly-D-lysine-coated clear 96 well tissue culture plates (Corning, Corning, N.Y., USA) at a density of 50,000 cells/well 18 h prior to assay. Experiments with HA-rCaSR WT and HA-hCaSR S170A required transient transfection of HEK293A cells 24 h prior to assay. DNA construct and Lipofectamine 2000 were diluted in Opti-MEM and mixed together after 5 minutes incubation at room temperature. For HA-rCaSR WT, 30 ng/well rCaSR DNA diluted in 25 μL/well Opti-MEM was mixed with 0.25 μL/well Lipofectamine 2000 in 25 μL/well Opti-MEM. For HA-hCaSR S170A, 40 ng/well […] DNA diluted in 25 μL/well Opti-MEM was mixed with 0.25 μL/well Lipofectamine 2000 in 25 μL/well Opti-MEM. The DNA:Lipofectamine 2000 mixtures were incubated 20 minutes at room temperature after which 50 μL/well was added to a poly-D-lysine-coated clear 96 well tissue culture plate. Next, 100 μL/well of a 400,000 cells/mL HEK293A cell solution prepared in culture media was added and the plate was placed at 37° C. and 5% CO2 (final cell density 40,000 cells/well).
Inositol monophosphate (IP1) accumulation was measured using the commercially available HTRF® IP1 accumulation kit (Cisbio Bioassays, Codolet, France) and an EnVision multimode plate reader (PerkinElmer, Waltham, Mass., USA). Unless stated otherwise, the cells were washed once with 100 μL/well assay buffer and stimulated for 30 minutes at 37° C. with 50 μL/well ligand(s) diluted in assay buffer supplemented with 20 mM LiCl. Following stimulation, the cells were washed once with 100 μL/well and lysed for 30 minutes at room temperature with 30 μL/well lysis buffer provided with the kit. The lysed cells were diluted 1:2 with assay buffer after which 10 μL/well was pipetted to a white 384-well OptiPlate (PerkinElmer, Waltham, Mass., USA). Next, 10 μL of a detection solution consisting of 2.5% IP1-d2 conjugate and 2.5% anti-IP1 antibody diluted in assay buffer was added to each well. Fluorophore emissions were measured after the plate was stored in the dark for 1 h. The 615/665 nm emission ratios measured upon excitation at 340 nm were converted to IP1 concentrations with an IP1 standard curve according to the manufacturer's instructions.

[1] = three independent experiments in triplicate

Max. response (fold over basal ± S.E.M.), rat ortholog: 3.43 ± 0.76 fold over basal
EC50 (three independent experiments in triplicate, read-out: Potency (pEC50 ± S.E.M.), rat ortholog (converted)): 257 nM
Molecule: COc1cccc([C@@H](C)NCCCc2ccccc2Cl)c1 [NPS R-568, reference compound]

Max. response (fold over basal ± S.E.M.), rat ortholog: 2.89 ± 0.13 fold over basal
Potency (pEC50 ± S.E.M.), rat ortholog [1]: 6.29 ± 0.02
B1: Nb10: llama-derived CaSR-specific nanobody acting as PAM, SEQ ID NO:3 (protein)
VHH: QVQLVESGGGLVQPGDSLRVSCAASGGSFRSYAMAWFRQAPGKEREFVAAMSGTYGSTIYSDSMKGRFTISRDNAKKMVYLRMNSLRPEDTAVYYCAGYYSGAYYGTPKTDYTEYDSWGQGTQVTVSS
modifications: CaSR Nb10

Max. response (fold over basal ± S.E.M.), rat ortholog: 3.07 ± 0.39 fold over basal
Potency (pEC50 ± S.E.M.), rat ortholog [1]: 6.00 ± 0.28
B2: Nb37: llama-derived CaSR-specific nanobody acting as PAM, SEQ ID NO:4 (protein)
VHH: B1 VHH with Q39R, S61A, P88A
modifications: CaSR Nb37

Max. response (fold over basal ± S.E.M.), rat ortholog: 3.10 ± 0.12 fold over basal
Potency (pEC50 ± S.E.M.), rat ortholog [1]: 6.78 ± 0.03
B3: Nb36: llama-derived CaSR-specific nanobody acting as PAM, SEQ ID NO:7 (protein)
VHH: QVQLVESGGGLVQAGESLRLSCAASGRTFSSYRMGWFRQGPGKEREFVAAITATGVRTYYADSVKGRFTISRDNAKNTVYLQMNSLQPDDTAVYLCAARRKAIFSVQQALTITDYDDWGQGTQVTVSS
modifications: CaSR Nb36

Max. response (fold over basal ± S.E.M.), rat ortholog: 2.90 ± 0.23 fold over basal
Potency (pEC50 ± S.E.M.), rat ortholog [1]: 6.24 ± 0.11
B4: Nb11: llama-derived CaSR-specific nanobody acting as PAM, SEQ ID NO:6 (protein)
VHH: QVQLVESGGGLVQAGGSLRLSCAASGRTFSTYRMGWFRQGPGKEREFVAAITATGVKTYYTDSVKGRFTISRDNAKNTVYLQMNSVQPEDTAVYSCAARIKAIFTAQQAATITDYDYWGQGTQVTVSS
modifications: CaSR Nb11

Max. response (fold over basal ± S.E.M.), rat ortholog: 3.01 ± 0.51 fold over basal
Potency (pEC50 ± S.E.M.), rat ortholog [1]: 6.46 ± 0.07
B5: Nb2: llama-derived CaSR-specific nanobody acting as PAM, SEQ ID NO:9 (protein)
VHH: QVQLVESGGGLVQAGSSLRLSCAASGRTFSNYRMAWFRQAPGKEREFVAVISRGGGGADYADSVKGRFTISRDNVKNTVSLQMNSLKPEDTAVYFCAARISGFSYYTSVDRYDYWGQGTQVTVSS
modifications: CaSR Nb2

Max. response (fold over basal ± S.E.M.), rat ortholog: 1.28 ± 0.12 fold over basal
B6: Nb5: llama-derived CaSR-specific nanobody, weakest PAM, SEQ ID NO:8 (protein)
VHH: QVQLVESGGRLVQDGGSLRLSCAASGLTFSDYSMGWFRQVPGKEREFVAVIRRSNDSTYYADFVKGRFTISRDNAKNTVYLQMNSLQPEDTAVYSCAADRGGVGLTSAQTYAYWGQGTQVTVSS
modifications: CaSR Nb5

Max. response (fold over basal ± S.E.M.), rat ortholog: 3.03 ± 0.63 fold over basal
Potency (pEC50 ± S.E.M.), rat ortholog [1]: 7.09 ± 0.09
B7: Nb4: llama-derived CaSR-specific nanobody acting as PAM, SEQ ID NO:5 (protein)
VHH: QVQLVESGGGLVQAGGSLRLSCAASGRTFSTYRMGWFRQGLGKEREFVAAITANGVRTFYTDSVKGRFTISRDNAKNTLYLQMNSLQPDDTAVYLCAARRKGIFTVQQAQDITDWDYWGQGTQVTVSS
modifications: CaSR Nb4

Max. response (fold over basal ± S.E.M.), rat ortholog: 2.88 ± 0.13 fold over basal
Potency (pEC50 ± S.E.M.), rat ortholog [1]: 6.31 ± 0.07
B8: Nb15: llama-derived CaSR-specific nanobody acting as PAM, SEQ ID NO:10 (protein)
VHH: QVQLVESGGGLVQAGGSLRLSCAASGRTFNNYHMAWFRQAPGKEREFAAAISRRAGTTYYADSVKGRFTISRDNAKNTVYLQMNSLKPEDTAVYYCAADPDTYGVSYLARKYDYWGQGTQVTVSS
modifications: CaSR Nb15
